Measured values published in US20260285966 (published 2026).
Like-named read-outs stand apart in the source and are kept apart here. Blank lines part the entries; values can stand above or below the binder they belong to.

Key:
Assay in all cases: SPR
[1] = target: human IL-15+IL-15Ralpha complex (human)
[2] = target: T1, cynomolgus IL-15+IL-15Ralpha complex (Macaca fascicularis)
T1 chain 1: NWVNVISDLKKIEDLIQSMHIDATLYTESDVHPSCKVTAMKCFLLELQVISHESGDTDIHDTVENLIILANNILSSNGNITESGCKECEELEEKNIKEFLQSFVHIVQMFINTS
T1 chain 2: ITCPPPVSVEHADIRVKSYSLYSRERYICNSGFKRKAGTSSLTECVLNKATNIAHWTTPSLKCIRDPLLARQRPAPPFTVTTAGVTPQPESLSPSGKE

[3] = target: human IL-15+IL-15Ralpha complex (human); remark: listed apart in the source
[4] = target: human IL-15+IL-15Ralpha complex (human); remark: listed apart in the source
[5] = target: human IL-15+IL-15Ralpha complex (human); remark: listed apart in the source

Kd [1]: 0.337 nM | Kd [2]: 0.148 nM | Kd [3]: 0.239 nM | Kd [4]: 0.201 nM
B1: CALY-002 (antibody, V domains shown)
VH: EVQLVESGGGLVQPGGSLRLSCAASEFTFSNYAMSWVRQAPGKGLEWVATISRGGDYTYYPDSVKGRFTISRDNSKNTLYLQMNSLRAEDTAVYYCARRVSMITGGWAMDYWGQGTLVTVSS
VL: DVVMTQSPLSLPVTLGQPASISCRSSQSIVDITGNTYLEWYQQRPGQSPRLLIYKVFNRFSGVPDRFSGSGSGTDFTLKISRVEAEDVGVYYCFQDSFVPYTFGQGTKLEIK

Kd [5]: 0.353 nM
B2: R1A3 (antibody, V domains shown)
VH: EVQLVQSGAEVKKPGESLKISCKVSGYFFTTYWIGWVRQMPGKGLEYMGIIYPGDSDTRYSPSFQGQVTISADKSISTAYLQWSSLKASDTAMYYCARGGHWNAFDFWGQGTLVTVSS
VL: EIVLTQSPGTLSLSPGERATLSCRASQSVSSSYLAWYQQKPGQAPRLLIYGASRRATGIPDRFSGSGSGTDFTLTISRLEPEDFAVYYCQQFDASQTFGQGTKLEIS
